Measurements published in the RNAGym collection of RNA variant scans (doi:10.1021/acssynbio.7b00057).

B1: Pistol ribozyme (parent)
chain: GGGUCGUUGUUCCAUAAUCGCGUGGAUAUGGCACGCAAGUUUCUACCGGGCACCGUAAAUGUCCGACUGGAGCCGUUCGGGCGGCUAUAAACAGACCUCAGGCCCGAAGCGUGGCGGCACCUGCCGCCGGUGGUAAAAAAGAUCGGAAGAGCACACGUCU

Variants of: B1
Experiment: aptazyme ON/OFF ratio, guanine; higher = stronger switching; co-transcriptional cleavage with and without guanine

Row | Variant | aptazyme ON/OFF ratio
1 | U7A U8C U10A U11A C12A | 1.17
2 | U7C U8G G9A U10A U11C C12U C13G | 1.08
3 | U8G G9A U10C C12U C13G | 1.08
4 | U7A G9U U10C U11A C12G C13G | 1.14
5 | U7A G9A U10C U11A C12A C13U | 1.19
6 | U7A U8G U10A U11G C12U C13G | 1.21
7 | U7C U8C G9U U11C C12G C13A | 1.12
8 | U8A U10C C12G C13G | 1.45
9 | U7G U8G G9A U10G U11G C13U | 1.22
10 | U7G U8A G9U U11G C12G C13U | 1.06
11 | U7C G9U U10C U11C C12A | 1.06
12 | U7A U8C U10G U11G C12G C13U | 1.4
13 | U7G U8G G9C U10G U11A C13A | 1.1
14 | U7A G9A U10A U11G C12U C13G | 1.15
15 | U7C U8G G9C U10C U11G C12A C13U | 1.05
16 | U8G U10A U11G C13A | 1.08
17 | U8C G9U U11G C12G C13U | 1.09
18 | U7A U8A G9C U10A U11A C12G C13G | 1.23
19 | U7A U8G G9U U10A C12G C13U | 1.36
20 | U7A G9A U10A U11C C12U C13A | 1.13
21 | U8C G9U U10C U11A C12U C13G | 1.09

Row | Variant | aptazyme ON/OFF ratio
22 | U7A U8A G9A U10C U11C C13U | 1.06
23 | U7G U8A U11C C12G C13G | 1.2
24 | U7A G9U U10A U11A C12A C13A | 1.1
25 | U8A U10A U11C C12A C13U | 1.19
26 | U7A U8A U11A C12U C13U | 1.25
27 | U8G G9U U10C U11A C12G C13U | 1.16
28 | U7A U8A G9C C12U C13A | 1.15
29 | U7G U8G G9U U10A U11C C12U C13U | 1.29
30 | U7A U8A G9A U10C C13A | 1.13
31 | U7G G9A U10A U11C C12A C13G | 1.1
32 | U7G U8C G9C U11A C13A | 1.09
33 | U8C G9U U10G U11C C13A | 1.24
34 | U7G U8G G9U U10A U11G | 1.27
35 | U7A U8C G9A U11G C12A C13G | 1.21
36 | U8C G9U U10C U11A C13U | 1.16
37 | U8A G9A U10C U11A C13U | 1.15
38 | U8C U10G U11A C13G | 1.19
39 | U7G U8C G9A U10G U11C C12G C13A | 1.14
40 | U7C U8G G9C U10A C12U C13A | 1.21
41 | U7G U8A G9U U10C U11A C12A C13U | 1.09
42 | U7C U8C G9C C12G | 1.18

Row | Variant | aptazyme ON/OFF ratio
43 | U7A U8C U11C | 1.2
44 | U7C U8C G9U U10C U11C C12U C13G | 1.1
45 | U8G G9A U10G C12A C13A | 1.29
46 | U7A U8A G9A C12A C13A | 1.06
47 | G9A U10C U11G C13A | 1.39
48 | U7C U8A G9C U10C U11G C12U C13U | 1.1
49 | U7A U8A U10A C12U | 1.11
50 | U8A G9C U10A U11G C12G C13U | 1.21
51 | U7A U8G C12G | 1.27
52 | U7C U8A G9C U11G C12U | 1.29
53 | U7C U8C G9C U10G U11A C12A | 1.16
54 | U7C U8C G9A C13A | 1.24
55 | U7C U8A G9C U10G U11C C12U C13U | 1.34
56 | U8A G9U U11A C12G C13A | 1.32
57 | U10G U11C C12G C13G | 1.14
58 | U8A U10G C12U C13A | 1.32
59 | U7C U8A G9A U10A U11G C12A C13U | 1.18
60 | U7C U8G G9U U10A C12U C13A | 1.2
61 | U7G U8A G9U U10A U11G C12U | 1.16
62 | U7A G9U U10G U11A C12G C13A | 1.41
63 | U7C U8A G9A U10A U11A C12U C13U | 1.13

Row | Variant | aptazyme ON/OFF ratio
64 | U8A G9C U10G U11C C12U | 1.05
65 | U7G G9C U10A U11C C12A | 1.76
66 | U7C U8G G9U U10A C12G | 1.18
67 | U7G U8A G9U U11A C13A | 1.09
68 | U8G G9U U10C C12A C13A | 1.2
69 | U7C U8A G9U U10A C12G | 1.18
70 | U7A G9U U10G C12A C13G | 1.13
71 | U8A G9C U10A C12A C13A | 1.22
72 | U7C U8C G9C U10G U11A C13G | 1.08
73 | U8G G9A U10G C12G C13A | 1.52
74 | U7G U8C G9C U10C C12A | 1.13
75 | U8G G9A U11G C12G | 1.23
76 | U7A U8G G9U U10G U11G C12A | 1.38
77 | U8G G9C U10G | 1.19
78 | U8A G9U U10C U11A C12A C13U | 1.17
79 | U7C U8A G9A U10A U11G C12G C13U | 1.18
80 | U7A U8A G9U U10G C12A | 1.22
81 | U7G U8G G9C U11C C12U C13A | 1.43
82 | U7G U8G G9A U10C C12G C13U | 1.33
83 | U7A U8G G9U U10A C13U | 1.23
